Test results taken from patent US20240182548A1 (AstraZeneca / MedImmune, published 2024).

Molecular target: SARS2 spike protein with C-terminal 19aa deletion, on S protein pseudotyped lentivirus (SARS-CoV-2, UniProt P0DTC2 13-1254)
Assay: cell-based or functional assay

B1: 2094 (antibody, V domains shown)
VH: EVQLVESGGGVVRPGGSLRLSCAASGFIFDDYDMTWVRQAPGKGLEWVSGINWNGGSTGYADSVKGRFTISRDNAKNSLYLQMNSLRAEDTALYHCAVIMSPIPRYSGYDWAGDAFDIWGQGTMVTVSS
VL: SSELTQDPAVSVALGQTVRITCQGDSLRSYYASWYQQKPGQVPILVIYDKNNRPSGIPDRFSGSSSGNTASLTITGAQAEDEADYYCNSRDSSGNAVVFGGGTKLTVL
Pseudovirus neutralization IC50: 3 ng/mL

B2: 2096 (antibody, V domains shown)
VH: QVQLVQSGAEVKKPGASVKVSCKASGYTFGSFDINWVRQATGQGLEWMGRMNSNSGNTAYAQKFQGRVTMTRDTSTNTAYMELSSLRSEDTAMYYCARMRSGWPTHGRPDDFWGRGTLVTVSS
VL: QSVLTQAPSASGTPGQRVTISCSGSNSNIGSYTINWYQQLPGTAPKLLIYGNDQRTSGVPDRFSGSKFGTSASLAISGLQSEDENNYYCAVWDDSLNGLVFGGGTKLTVL
Pseudovirus neutralization IC50: 3.3 ng/mL
